{"source": "IntAct's records for PubMed 29892012", "parents": {"B1": {"name": "Late cornified envelope protein 1B (Homo sapiens), Q5T7P3 (parent)", "chain": "MSCQQNQQQCQPPPKCIPKCPPKCLTPRCPPKCPPKCPPVSSCCSVSSGGCCGSSSGGSCGSSSGGCCSSGGGGCCLSHHRRRRSHCHRPQSSGCCSQPSGGSSCCGGGSGQHSGGCC"}}, "data": [{"variants_of": "B1", "conditions": "with kr108_human KRTAP10-8, P60410", "values": [{"variant": "MSCQQNQQQCQPPPKYIPKCPPKCLTPRCPPKCPPKCPPVSSCCSVSSGGCCGSSSGGSCGSSSGGCCSSGGGGCCLSHHRRRRSHCHRPQSSGCCSQPSGGSSCCGGGSGQHSGGCC", "note": "[C16Y]", "effect of a mutation on the interaction": "disrupting interaction strength"}]}, {"variants_of": "B1", "conditions": "with kr103_human KRTAP10-3, P60369", "values": [{"variant": "MSCQQNQQQCQPPPKYIPKCPPKCLTPRCPPKCPPKCPPVSSCCSVSSGGCCGSSSGGSCGSSSGGCCSSGGGGCCLSHHRRRRSHCHRPQSSGCCSQPSGGSSCCGGGSGQHSGGCC", "note": "[C16Y]", "effect of a mutation on the interaction": "disrupting interaction strength"}]}, {"variants_of": "B1", "conditions": "with kr101_human KRTAP10-1, P60331", "values": [{"variant": "MSCQQNQQQCQPPPKYIPKCPPKCLTPRCPPKCPPKCPPVSSCCSVSSGGCCGSSSGGSCGSSSGGCCSSGGGGCCLSHHRRRRSHCHRPQSSGCCSQPSGGSSCCGGGSGQHSGGCC", "note": "[C16Y]", "effect of a mutation on the interaction": "with no effect"}]}, {"variants_of": "B1", "conditions": "with hxa1_human HOXA1, P49639", "values": [{"variant": "MSCQQNQQQCQPPPKYIPKCPPKCLTPRCPPKCPPKCPPVSSCCSVSSGGCCGSSSGGSCGSSSGGCCSSGGGGCCLSHHRRRRSHCHRPQSSGCCSQPSGGSSCCGGGSGQHSGGCC", "note": "[C16Y]", "effect of a mutation on the interaction": "with no effect"}]}, {"variants_of": "B1", "conditions": "with kr105_human KRTAP10-5, P60370", "values": [{"variant": "MSCQQNQQQCQPPPKYIPKCPPKCLTPRCPPKCPPKCPPVSSCCSVSSGGCCGSSSGGSCGSSSGGCCSSGGGGCCLSHHRRRRSHCHRPQSSGCCSQPSGGSSCCGGGSGQHSGGCC", "note": "[C16Y]", "effect of a mutation on the interaction": "disrupting interaction strength"}]}, {"variants_of": "B1", "conditions": "with mdfi_human MDFI", "values": [{"variant": "MSCQQNQQQCQPPPKYIPKCPPKCLTPRCPPKCPPKCPPVSSCCSVSSGGCCGSSSGGSCGSSSGGCCSSGGGGCCLSHHRRRRSHCHRPQSSGCCSQPSGGSSCCGGGSGQHSGGCC", "note": "[C16Y]", "effect of a mutation on the interaction": "disrupting interaction strength"}]}, {"variants_of": "B1", "conditions": "with otx1_human OTX1, P32242", "values": [{"variant": "MSCQQNQQQCQPPPKYIPKCPPKCLTPRCPPKCPPKCPPVSSCCSVSSGGCCGSSSGGSCGSSSGGCCSSGGGGCCLSHHRRRRSHCHRPQSSGCCSQPSGGSSCCGGGSGQHSGGCC", "note": "[C16Y]", "effect of a mutation on the interaction": "with no effect"}]}, {"variants_of": "B1", "conditions": "with kra32_human KRTAP3-2, Q9BYR7", "values": [{"variant": "MSCQQNQQQCQPPPKYIPKCPPKCLTPRCPPKCPPKCPPVSSCCSVSSGGCCGSSSGGSCGSSSGGCCSSGGGGCCLSHHRRRRSHCHRPQSSGCCSQPSGGSSCCGGGSGQHSGGCC", "note": "[C16Y]", "effect of a mutation on the interaction": "with no effect"}]}, {"variants_of": "B1", "conditions": "with nt2na_human NOTCH2NLA", "values": [{"variant": "MSCQQNQQQCQPPPKYIPKCPPKCLTPRCPPKCPPKCPPVSSCCSVSSGGCCGSSSGGSCGSSSGGCCSSGGGGCCLSHHRRRRSHCHRPQSSGCCSQPSGGSSCCGGGSGQHSGGCC", "note": "[C16Y]", "effect of a mutation on the interaction": "with no effect"}]}]}
